Among the data in patent publication US5858678 are relative level of lacZ expression (ONPG) (relative level) values, retold here.

Some results are limits rather than exact numbers.

Experiment [1] deals with 19K mutant 123-4 (substitutions for residues 123-124) bait (GAL4(1-147)-19 kD fusion) (yeast; adenovirus) (UniProt P04386). Nature of the experiment: yeast two-hybrid, ONPG beta-galactosidase assay.
The target of experiment [2] is 19K mutant 14-5 bait (GAL4(1-147)-19 kD fusion) (yeast; adenovirus) (UniProt P04386). Nature of the experiment: yeast two-hybrid, ONPG beta-galactosidase assay.
The target in experiment [3] is 19K mutant 146-E bait (GAL4(1-147)-19 kD fusion) (yeast; adenovirus) (UniProt P04386). The experiment in a line: yeast two-hybrid, ONPG beta-galactosidase assay.
Experiment [4] deals with 19K mutant 29-0 bait (GAL4(1-147)-19 kD fusion) (yeast; adenovirus) (UniProt P04386). The experiment in a line: yeast two-hybrid, ONPG beta-galactosidase assay.
Experiment [5] deals with 19K mutant 50-1 (amino acids 50-51) bait (GAL4(1-147)-19 kD fusion) (yeast; adenovirus) (UniProt P04386). Nature of the experiment: yeast two-hybrid, ONPG beta-galactosidase assay.
For experiment [6], the target named is 19K mutant 75-6 (substitution for residues 75-76) bait (GAL4(1-147)-19 kD fusion) (yeast; adenovirus) (UniProt P04386). The experiment in a line: yeast two-hybrid, ONPG beta-galactosidase assay.
For experiment [7], the target named is 19K mutant 90-6 (amino acids 90-96) bait (GAL4(1-147)-19 kD fusion) (yeast; adenovirus) (UniProt P04386). The experiment in a line: yeast two-hybrid, ONPG beta-galactosidase assay.
The target of experiment [8] is Bcl-2 deletion mutant #106-5 (lacks residues 106 to 115) bait in pMA424 (yeast; human). The experiment in a line: yeast two-hybrid, ONPG beta-galactosidase assay.
For experiment [9], the target named is Bcl-2 deletion mutant #42-8 (lacks residues 42 to 48) bait in pMA424 (yeast; human). Nature of the experiment: yeast two-hybrid, ONPG beta-galactosidase assay.
For experiment [10], the target named is Bcl-2 deletion mutant #80-6 (lacks residues 80 to 86) bait in pMA424 (yeast; human). Nature of the experiment: yeast two-hybrid, ONPG beta-galactosidase assay.
Experiment [11] addresses GAL4(1-147)-19K fusion protein (adenovirus E1B 19 kD protein bait, wild type) (yeast; adenovirus) (UniProt P04386). The experiment in a line: yeast two-hybrid, ONPG beta-galactosidase assay.
Experiment [12] has as its target human Bcl-2 bait (pMA424-based GAL4 DNA-binding domain fusion, residues 1-239 of Bcl2), wild type (yeast; human). The experiment in a line: yeast two-hybrid, ONPG beta-galactosidase assay.
The target of experiment [13] is GAL4(1-147)-19K fusion protein (adenovirus E1B 19 kD protein bait, wild type) (yeast; adenovirus) (UniProt P04386). The experiment in a line: yeast two-hybrid, ONPG beta-galactosidase assay, relative to the 19K bait.
Experiment [14] deals with human Bcl-2 bait (pMA424-based GAL4 DNA-binding domain fusion, residues 1-239 of Bcl2), wild type (yeast; human). The experiment is described as above.

Nip1 (19K-interacting protein 1), protein coded by cDNA clone 22, tagged with the GAL4 activation domain, sequence (chain): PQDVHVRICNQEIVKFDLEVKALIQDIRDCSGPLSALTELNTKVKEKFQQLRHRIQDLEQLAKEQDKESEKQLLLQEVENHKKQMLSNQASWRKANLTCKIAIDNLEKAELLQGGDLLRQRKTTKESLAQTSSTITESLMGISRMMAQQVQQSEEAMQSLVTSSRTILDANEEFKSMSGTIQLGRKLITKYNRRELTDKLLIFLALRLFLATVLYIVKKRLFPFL
Nip3 (19K-interacting protein 3), protein coded by cDNA clone 91, tagged with the GAL4 activation domain, sequence (chain): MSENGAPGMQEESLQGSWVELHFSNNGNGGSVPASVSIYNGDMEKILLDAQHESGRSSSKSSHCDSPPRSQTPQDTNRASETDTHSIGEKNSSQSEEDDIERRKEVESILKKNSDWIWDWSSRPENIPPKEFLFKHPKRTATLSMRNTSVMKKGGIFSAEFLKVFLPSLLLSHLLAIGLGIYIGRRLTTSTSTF
Nip2 (19K-interacting protein 2), protein coded by cDNA clone 44, tagged with the GAL4 activation domain, sequence (chain): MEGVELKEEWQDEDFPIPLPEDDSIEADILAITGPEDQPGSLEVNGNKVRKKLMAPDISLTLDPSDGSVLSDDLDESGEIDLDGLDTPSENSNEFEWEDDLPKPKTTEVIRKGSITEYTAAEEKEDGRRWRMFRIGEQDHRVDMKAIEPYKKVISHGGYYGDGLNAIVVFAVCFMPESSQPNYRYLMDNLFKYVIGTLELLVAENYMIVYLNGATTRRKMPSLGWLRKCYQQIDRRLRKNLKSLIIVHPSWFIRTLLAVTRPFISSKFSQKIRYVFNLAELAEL

With “Nip1 (19K-interacting protein 1), protein coded by cDNA clone 22, tagged with the GAL4 activation domain”, the relative level of lacZ expression (ONPG) (relative level) in experiment [1] is 0.05; in experiment [2], 0.61; in experiment [3] it was 0.87; in experiment [4] it was 0.33; in experiment [5] it was less than 0.01; in [6] it was 1.72. Further, the relative level of lacZ expression (ONPG) (relative level) in [7] was less than 0.01; in experiment [8] it was 0.01; in experiment [9], 0.16; in experiment [10] it was 1.21; in [11], 1; in experiment [12], 1. The relative level of lacZ expression (ONPG) (relative level) amounted to 1 in experiment [13] and 1.8 in experiment [14].

For “Nip2 (19K-interacting protein 2), protein coded by cDNA clone 44, tagged with the GAL4 activation domain”, the relative level of lacZ expression (ONPG) (relative level) came to 0.24 in [1]; 0.55 in experiment [2]; 0.98 in [3]; 0.32 in experiment [4]; 0.09 in experiment [5]; 1.6 in experiment [6]. The relative level of lacZ expression (ONPG) (relative level) in experiment [7] is 0.04; in [8], 0.06; in experiment [9], 0.09; in experiment [10] it was 0.8; in experiment [11] it was 1; in [12], 1. The results for the relative level of lacZ expression (ONPG) (relative level) in experiment [13] and in experiment [14] were 1 and 0.7, respectively.

“Nip3 (19K-interacting protein 3), protein coded by cDNA clone 91, tagged with the GAL4 activation domain”: the relative level of lacZ expression (ONPG) (relative level) in [1] turned out to be 0.1; in experiment [2], 0.16; in experiment [3], 0.28; in experiment [4], 0.19; in experiment [5], 0.01; in experiment [6], 0.22. Besides, the relative level of lacZ expression (ONPG) (relative level) worked out at 0.01 in [7]; 0.11 in experiment [8]; 0.19 in experiment [9]; 2.87 in experiment [10]; 1 in [11]; 1 in experiment [12]. Also, the relative level of lacZ expression (ONPG) (relative level) amounted to 1 in experiment [13] and 1.5 in [14].
